This note sets out measurements from the RNAGym collection of RNA variant scans (doi:10.1093/nar/gkz1192).

The chains are these.
B1: CPEB3 Ribozyme (parent)
chain: UAACAGGGGGCCACAGCAGAAGCGUUCACGUCGCAGCCCCUGUCAGAUUCUGGUGAAUCUGCGAAUUCUGCUGUAUAUCUC

Variants of B1 are the subject of this series. Briefly: self-cleavage, relative activity (ratio to wild type); higher = more cleavage; in vitro, sequencing. The essentials: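 Libraries of CPEB3 self-cleaving ribozyme mutants came from rounds of error-prone PCR and carried barcodes, which DNA sequencing matched to variants. In vitro transcription used T7 RNA polymerase at 37°C for 5 hours, with a further 15 min in DNase I before EDTA stopped the reaction; the ribozymes cleaved during both steps. The RNA was reverse transcribed with template switching and sequenced on Illumina. Relative activity is the cleaved/total read fraction of a variant divided by that of the unmutated ribozyme, averaged over three batches with at least 5 reads.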
Turning to G63C U66C, the self-cleavage is 0.37.

Consider G63U U72C, for which the self-cleavage was 1.2.

Regarding G63A U66C, the self-cleavage was 0.45.

In the case of G63A U66A, the self-cleavage amounted to 0.4.

In the case of C62U G73A, the self-cleavage came to 0.16.

In the case of C62U G73U, the self-cleavage was 0.21.

Turning to A64U C71A, the self-cleavage worked out at 0.18.

On to G63U U80A, for which the self-cleavage was 0.98.

G63U U80C: the self-cleavage came to 1.11.

In the case of G61U G70A, the self-cleavage was 0.31.

With G63U, the self-cleavage came out at 1.09.

As for G63A, the self-cleavage was found to be 0.87.

G63C: the self-cleavage was 0.92.

Regarding U60C A75G, the self-cleavage came to 0.37.

With U60C A75U, the self-cleavage was determined as 0.57.

U60C A75C: the self-cleavage was 0.72.

G61C U74A: the self-cleavage turned out to be 0.88.

Turning to G61C U74C, the self-cleavage came out at 0.23.

Take C62U A77G: the self-cleavage stood at 0.15.

Take C62U A77U: the self-cleavage was determined as 0.17.

As to C62U A77C, the self-cleavage was 0.19.

In the case of G63U A65U, the self-cleavage is 0.51.

As for G63U A65G, the self-cleavage amounted to 0.5.

Take C62A A64G: the self-cleavage was 0.25.

Take G63A U74A: the self-cleavage was 0.33.

As to G63A U74C, the self-cleavage was determined as 1.21.

As to G63A A77U, the self-cleavage was determined as 0.99.

Turning to G63A A77G, the self-cleavage amounted to 0.74.

Regarding G63C U76C, the self-cleavage is 1.03.

In the case of G63A C68U, the self-cleavage came out at 0.96.

As for A64G U74A, the self-cleavage was 1.2.

Regarding A64G U74G, the self-cleavage came out at 1.26.

In the case of A64G U74C, the self-cleavage turned out to be 1.15.

For the variant A64G A65U, the self-cleavage stood at 0.19.

A64G A65G: the self-cleavage turned out to be 0.28.

On to A64G A65C, for which the self-cleavage is 0.31.

As for U60C U67G, the self-cleavage was 0.2.

U60C U67A: the self-cleavage is 0.3.

Take U60C U67C: the self-cleavage came out at 0.35.

As to G63A A64U, the self-cleavage is 0.54.

For the variant G63A A64G, the self-cleavage is 0.6.

Take G63A A64C: the self-cleavage is 0.42.

For the variant A64C U69G, the self-cleavage was 0.47.

In the case of A64C U69C, the self-cleavage came to 0.4.

Consider G63A A65G, for which the self-cleavage was 0.38.

As for A64G U66A, the self-cleavage amounted to 0.32.

Regarding A64G U66C, the self-cleavage was 0.34.

As for G61A U69C, the self-cleavage was 0.53.

For G61A U69A, the self-cleavage came to 0.4.

For the variant C62A A77G, the self-cleavage was found to be 0.24.

As to A64C U66C, the self-cleavage was determined as 0.24.

As for A64U A77G, the self-cleavage turned out to be 0.39.

Take A64U A77U: the self-cleavage was 0.46.

For G63U A77G, the self-cleavage was 1.24.

With G63U U76G, the self-cleavage was 1.17.

As to G63U U76C, the self-cleavage was 1.12.

As to G63U U76A, the self-cleavage came to 1.23.

Take C62A U78A: the self-cleavage worked out at 0.16.

As to C62A U78C, the self-cleavage was 0.16.

For G61A U76C, the self-cleavage turned out to be 0.88.

As for G63U C81U, the self-cleavage is 0.99.

In the case of A64U A75U, the self-cleavage amounted to 0.45.

Consider A64U A75G, for which the self-cleavage is 0.35.

Take A64U A75C: the self-cleavage is 0.5.

For the variant U60C C79A, the self-cleavage was determined as 0.93.

For U60C C79G, the self-cleavage came to 0.81.

On to U60C C79U, for which the self-cleavage was found to be 0.72.

On to C62A U74A, for which the self-cleavage was 0.18.

For the variant C62A U74C, the self-cleavage was determined as 0.4.

With A64G C71G, the self-cleavage was found to be 0.31.

Consider A64G C71U, for which the self-cleavage turned out to be 0.34.

As to C62U A64G, the self-cleavage is 0.19.

For C62U A64U, the self-cleavage was determined as 0.29.

For the variant U60C G61C, the self-cleavage stood at 0.29.

As to U60C G61U, the self-cleavage turned out to be 0.26.

For U60G A65G, the self-cleavage was found to be 0.24.

Consider G63A U78A, for which the self-cleavage is 0.93.

On to G63A U78C, for which the self-cleavage turned out to be 0.82.

Consider G61A U78C, for which the self-cleavage amounted to 0.62.

Regarding C62G U72C, the self-cleavage amounted to 0.26.

On to C62G U72A, for which the self-cleavage amounted to 0.27.

As to G61A A65G, the self-cleavage turned out to be 0.39.

Regarding A64C U78C, the self-cleavage turned out to be 0.28.

Regarding C62A U72G, the self-cleavage was determined as 0.19.

Turning to C62A U72C, the self-cleavage was determined as 0.24.

For the variant C62A U72A, the self-cleavage turned out to be 0.17.

For G63A U69A, the self-cleavage came to 0.5.

As to G63A U69C, the self-cleavage was 0.61.

For G61U U80C, the self-cleavage was 0.65.

For the variant G63C U78A, the self-cleavage is 1.01.

For the variant C62U U66A, the self-cleavage is 0.18.

Turning to C62U U66C, the self-cleavage was found to be 0.26.

Regarding A64U, the self-cleavage worked out at 0.32.

Consider A64G, for which the self-cleavage worked out at 0.93.

Take A64C: the self-cleavage was 0.29.

A64C U67A: the self-cleavage was 0.19.

Regarding A64C U67C, the self-cleavage came out at 0.2.

U60G U72G: the self-cleavage was 0.28.

With U60G U72A, the self-cleavage came out at 0.22.

As to U60G U72C, the self-cleavage was 0.32.

With U60C U74G, the self-cleavage was 0.66.

As to U60C U74A, the self-cleavage was 0.96.

For U60C U74C, the self-cleavage worked out at 0.79.

On to G63U U78A, for which the self-cleavage came to 0.98.

As to G63U U78C, the self-cleavage worked out at 0.96.

Turning to A64G A75G, the self-cleavage was 0.71.

On to A64G A75U, for which the self-cleavage came to 1.01.

In the case of A64G A75C, the self-cleavage turned out to be 1.06.

For the variant A64G C79U, the self-cleavage came to 1.1.

As to A64G C79A, the self-cleavage came out at 0.84.

Take A64C U72C: the self-cleavage was determined as 0.48.

Turning to A64C U72A, the self-cleavage was 0.27.

Regarding U60C U78C, the self-cleavage came out at 0.45.

As to U60C U78A, the self-cleavage came out at 0.55.

G63U A75U: the self-cleavage amounted to 1.2.

Regarding G63U A75G, the self-cleavage came to 1.14.

On to G63U G70A, for which the self-cleavage is 0.62.

As to C62A U69G, the self-cleavage is 0.33.

Turning to C62A U69A, the self-cleavage is 0.31.

Turning to C62A U69C, the self-cleavage came to 0.34.

Regarding A64C G70A, the self-cleavage stood at 0.33.

Regarding G63A U72A, the self-cleavage is 0.59.

As to G63A U72G, the self-cleavage turned out to be 0.84.

As for G63A U72C, the self-cleavage was 0.91.

As to C62G A65U, the self-cleavage is 0.27.

For C62A U66C, the self-cleavage came out at 0.25.

On to C62A U66A, for which the self-cleavage was found to be 0.48.

For the variant U60C A64U, the self-cleavage is 0.31.

Consider U60C A64G, for which the self-cleavage worked out at 0.36.

Regarding G63U U74G, the self-cleavage is 1.21.

As for G63U U74C, the self-cleavage was 1.19.

On to G63U U74A, for which the self-cleavage worked out at 1.29.

For the variant G61U U74C, the self-cleavage stood at 1.19.

Take U60G: the self-cleavage came out at 0.48.

As for A64G U80G, the self-cleavage worked out at 0.67.

As to A64G U80A, the self-cleavage was found to be 1.03.

Regarding A64G U80C, the self-cleavage came out at 0.95.

As for U60C C81A, the self-cleavage was found to be 0.37.

Turning to U60C C81U, the self-cleavage came out at 0.74.

As for C62A U80C, the self-cleavage is 0.34.

Regarding C62A U80A, the self-cleavage is 0.1.

Turning to G61A U66C, the self-cleavage came out at 0.39.

For G63U C79U, the self-cleavage is 1.09.

For the variant A64U A65C, the self-cleavage came out at 0.13.

On to A64U A65G, for which the self-cleavage stood at 0.25.

On to A64U A65U, for which the self-cleavage came out at 0.37.

Take C62G C71U: the self-cleavage was 0.38.

Take G61C U72C: the self-cleavage stood at 0.34.

Turning to G63A U67A, the self-cleavage amounted to 0.31.

For the variant G63A U67C, the self-cleavage worked out at 0.3.

Consider G61U U69A, for which the self-cleavage turned out to be 0.3.

For G61C U78C, the self-cleavage was found to be 0.33.

Regarding U60C G63U, the self-cleavage was found to be 0.58.

U60C G63C: the self-cleavage was 0.54.

As to U60C G63A, the self-cleavage amounted to 0.57.

With G63A U80A, the self-cleavage was found to be 0.97.

On to G63A U80C, for which the self-cleavage turned out to be 0.93.

Consider C62U U72C, for which the self-cleavage was found to be 0.29.

On to C62U U72A, for which the self-cleavage came to 0.4.

For C62U U72G, the self-cleavage is 0.29.

For the variant C62G U69A, the self-cleavage was found to be 0.15.

On to C62G U69C, for which the self-cleavage came out at 0.22.

As to C62A U76C, the self-cleavage turned out to be 0.17.

C62U U80A: the self-cleavage came out at 0.3.

For C62U U80C, the self-cleavage amounted to 0.28.

Regarding C62U U74A, the self-cleavage is 0.32.

Take C62U U74G: the self-cleavage was found to be 0.19.
